Data: PMC8155666, “Engineering Promiscuous Alcohol Dehydrogenase Activity of a Reductive Aminase AspRedAm for Selective Reduction of Biobased Furans” (Frontiers in Chemistry, 2021)

Assays:
O=Cc1ccc(CO)o1 = tested on: T1, O=Cc1ccc(CO)o1; assay: purified protein; assay type: biochemical, Aspergillus oryzae; details: 0.2 mM NADH, 100 mM Tris-HCl pH 8, 30°C, 1 μM-5 mM HMF, 37 μg/ml enzyme
T1 construct: recombinant, purified

purified protein = substrate: O=Cc1ccc(CO)o1; assay: purified protein; details: 0.2 mM NADH, 100 mM Tris-HCl pH 9, 30°C, 1 μM-5 mM HMF, 43 μg/ml enzyme

AspRedAm (Aspergillus oryzae RIB40; N93A)
Km (O=Cc1ccc(CO)o1): 4.1 ± 0.7 ×10^-3 mM | kcat (O=Cc1ccc(CO)o1): 0.0967 ± 0.0076 s⁻¹ | kcat/Km (O=Cc1ccc(CO)o1): 23600 ± 2000 M⁻¹ s⁻¹

B1: AspRedAm (Aspergillus oryzae RIB40) (protein)
chain: MSKHIGIFGLGAMGTALAAKYLEHGYKTSVWNRTTAKAIPLVEQGAKLASTISEGVNANDLIIICLLNNQVVEDALRDALQTLPSKTIVNLTNGTPNQARKLADFVTSHGARYIHGGIMAVPTMIGSPHAVLLYSGESLELFQSIESHLSLLGMSKYLGTDAGSASLHDLALLSGMYGLFSGFLHAVALIKSGQDTSTTATGLLPLLTPWLSAMTGYLSSIAKQIDDGDYATQGSNLGMQLAGVENIIRAGEEQRVSSQMILPIKALIEQAVGEGHGGEDLSALIEYFKVGKNVD
Km (purified protein): 1.3 ± 0.2 ×10^-3 mM | kcat (purified protein): 0.0175 s⁻¹ | kcat/Km (purified protein): 13100 M⁻¹ s⁻¹
